The Immune Epitope Database (IEDB)

Legend:
[1] = target: HLA-A*02:07; experiment: IEDB peptide-MHC binding, purified MHC/competitive/radioactivity; filed as Kd, often an IC50 or EC50 that approximates it; ≥ and ≤ were set here for values at or beyond the usual limits of such assays
[2] = target: HLA-A*02:01; experiment: as above
[3] = source organism: Mycobacterium tuberculosis
[4] = source organism: Hepatitis B virus adr4
[5] = source organism: Hepatitis B virus

Row | Kd ([1]; source organism: Homo sapiens) | Kd ([2]; source organism: Homo sapiens) | Sequence | also measured
1 | 1050 nM |  | YLQLVFGIEV | 
2 | 1560 nM | 1610 nM | SLDLASLIL | 
3 | ≥ 30000 nM |  | LLFFWLDRSV | 
4 |  |  | YLDLALMSV | Kd [2, 3]: 5.6 nM; Kd [1, 3]: 44 nM
5 |  |  | LVPFVQWFV | Kd [1, 4]: 2530 nM
6 |  |  | ILKEPVHGV | Kd ([1]; source organism: HIV-1 M:B_MN): ≥ 30000 nM
7 | ≥ 30000 nM | ≥ 30000 nM | NLDRSNDKV | 
8 |  |  | KLPQLCTEL | Kd ([1]; source organism: Human papillomavirus 16): 2660 nM
9 | ≥ 30000 nM | ≥ 30000 nM | QIPSYKKLI | 
10 | 6640 nM | ≥ 30000 nM | AAPLILSRI | 
11 | 1400 nM |  | GMPEGDLVYV | 
12 |  |  | LLPFVQWFV | Kd [2, 5]: 8.6 nM; Kd [1, 5]: 88 nM
13 | 5970 nM | 96 nM | ALDVYNGLL | 
14 |  |  | YMDDVVLGV | Kd [1, 5]: 92 nM
15 |  |  | QLDPARDVL | Kd [1, 4]: ≥ 30000 nM
16 | 548 nM |  | RMPEAAPPV | 
17 | ≥ 23300 nM |  | ALAETSYVKV | 
18 | ≥ 30000 nM | ≥ 30000 nM | LTDAVKVMDL | 
19 |  |  | WVDLRSLFL | Kd ([2]; source organism: HIV-1 M:B_MN): 16700 nM; Kd ([1]; source organism: HIV-1 M:B_MN): ≥ 26900 nM
20 | ≥ 30000 nM | ≥ 30000 nM | TLPSWATEDT | 
21 |  |  | YTAFTIPSI | Kd ([1]; source organism: HIV-1 M:B_MN): ≥ 30000 nM
22 |  |  | SLDSWWTSV | Kd [2, 5]: 50 nM; Kd [1, 5]: 236 nM
23 |  |  | RLPLVLPAV | Kd [2, 3]: 5.2 nM; Kd [1, 3]: 8.9 nM
24 |  |  | LLWKGEGAVV | Kd ([2]; source organism: HIV-1 M:B_MN): 111 nM; Kd ([1]; source organism: HIV-1 M:B_MN): 4150 nM
25 | 6480 nM | 68 nM | CILESLFRA | 
